Reference: publication PMC212687

Target: RAG1;RAG2;HMG (HMG-1/2) (;;) (UniProt P15919+P21784)
Test: EMSA
Conditions: Standard gel shift, conditions as in Fugmann et al. 2000b (not given in the material), three experiments

Sequence: GATCTGGCCTGGTCTGCACAACCCTGTGACTCCCAACAAAAACCTGCACTCGAGCGGAG (double strand) [N (Jβ2.6 with consensus nonamer)]
- binding signal (relative to Jβ2.2) (up to level of Jβ2.2): 1

Sequence: GATCTGGCCTGGTCTGCACAGTGCAGATCTAGGAGACAAAAACCTGCACTCGAGCGGAG (double strand) [H-Sac-N]
- binding signal (relative to H-Sc-N) (about 3-fold reduced vs H-Sc-N): 0.33

Sequence: GATCTGGCCTGGTTTGCACAGTCCTGGAAATGCTGGCACAAACCTGCACTCGAGCGGAG (double strand) [Jβ2.2 12-RSS]
- binding signal (relative to Jβ2.2): 1

Sequence: GATCTGGCCTGGTCTGCACAACCCTGTGACTCCCAAGAGAAACCTGCACTCGAGCGGAG (double strand) [Jβ2.6 12-RSS]
- binding signal (relative to Jβ2.2) (about 2-fold reduced): 0.5
